Measured values from PMC6534634, “Understanding xylose isomerase from Burkholderia cenocepacia: insights into structure and functionality for ethanol production” (AMB Express, 2019).

How the values were obtained:
[1] = molecular target: T1, XylABc (XylA, xylose isomerase from Burkholderia cenocepacia) (Burkholderia cenocepacia, UniProt B4ENA5); test: sorbitol dehydrogenase-coupled NADH oxidation, […] nm; type: biochemical
T1 construct: full-length, synthetic gene in pTrcHis-B, His6 fusion (tag apparently kept), E. coli TOP10, Ni resin + Superdex 200; homotetramer ca. 208 kDa
T1 sequence (B4ENA5 1-440): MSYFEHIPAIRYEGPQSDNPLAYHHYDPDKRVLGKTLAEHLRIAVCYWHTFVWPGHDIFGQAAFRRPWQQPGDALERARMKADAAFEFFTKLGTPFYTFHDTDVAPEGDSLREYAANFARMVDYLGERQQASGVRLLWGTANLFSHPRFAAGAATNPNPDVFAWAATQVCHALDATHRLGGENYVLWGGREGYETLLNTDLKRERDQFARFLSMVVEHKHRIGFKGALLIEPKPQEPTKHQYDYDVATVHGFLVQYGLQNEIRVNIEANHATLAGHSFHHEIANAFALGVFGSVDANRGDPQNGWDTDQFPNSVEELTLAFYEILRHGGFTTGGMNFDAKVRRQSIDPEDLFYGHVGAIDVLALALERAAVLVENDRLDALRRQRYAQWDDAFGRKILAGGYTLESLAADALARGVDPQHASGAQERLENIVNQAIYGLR

[2] = molecular target: the molecule itself; test: native gel or EMSA; non-denaturing 4-20% gradient PAGE of the pooled Superdex 200 peak of His6-XylA, SDS-free sample and running buffers, standards 10-250 kDa; band identified by LC-MS/MS; tetramer
[3] = molecular target: the molecule itself; test: SDS-PAGE (SDS-resistant oligomer); SDS-PAGE (5% stacking, 12% resolving) after size exclusion; loading dye with 8 M urea, 4% SDS, 100 mM beta-mercaptoethanol; bands identified by LC-MS/MS; dimer beside monomer

## OC[C@@H](O)[C@H](O)[C@@H](O)CO [xylitol]
[1]
  IC50: 3.75 mM

B1: Xylose isomerase from Burkholderia cenocepacia (His6-XylA fusion protein) (enzyme, Burkholderia cenocepacia J2315, UniProt B4ENA5 1-440, looked up)
chain: MSYFEHIPAIRYEGPQSDNPLAYHHYDPDKRVLGKTLAEHLRIAVCYWHTFVWPGHDIFGQAAFRRPWQQPGDALERARMKADAAFEFFTKLGTPFYTFHDTDVAPEGDSLREYAANFARMVDYLGERQQASGVRLLWGTANLFSHPRFAAGAATNPNPDVFAWAATQVCHALDATHRLGGENYVLWGGREGYETLLNTDLKRERDQFARFLSMVVEHKHRIGFKGALLIEPKPQEPTKHQYDYDVATVHGFLVQYGLQNEIRVNIEANHATLAGHSFHHEIANAFALGVFGSVDANRGDPQNGWDTDQFPNSVEELTLAFYEILRHGGFTTGGMNFDAKVRRQSIDPEDLFYGHVGAIDVLALALERAAVLVENDRLDALRRQRYAQWDDAFGRKILAGGYTLESLAADALARGVDPQHASGAQERLENIVNQAIYGLR
notes: Xylose isomerase XylA of Burkholderia cenocepacia J2315, full-length gene made as synthetic DNA, cloned HindIII/BglII into pTrcHis-B; The fusion has a printed theoretical mass of 53,598.67 Da; also called XylABc; XI; source: E. coli TOP10, purified (Ni2+ resin, Superdex 200)
[2]
  stoichiometry N: 4
[3]
  stoichiometry N: 2
